According to patent publication US20260001928A1 (CORTERIA PHARMACEUTICALS, priority 2022, published 2026):
*1 amine or outer side, *2 acyl side, *3 side chain or, on linkers, in order; H or OH if unused. Side-chain parts run from the residue outwards. [ ]: non-standard residue; d: D form. The star is where a group is joined. C18 diacid = O=C(O)CCCCCCCCCCCCCCCCC(=O)*; C16 diacid = O=C(O)CCCCCCCCCCCCCCC(=O)*; γGlu = O=C(O)[C@H](CCC(=O)[*:2])N[*:1]; αMeK = C[C@](N)(CCCCN)C(=O)O; Dap = NC[C@H](N)C(=O)O; AEEA = NCCOCCOCC(=O)O; Aib = CC(C)(N)C(=O)O

T1: CRF1R receptor (UniProt P34998 24-415, limits assumed)
T1 sequence (looked up): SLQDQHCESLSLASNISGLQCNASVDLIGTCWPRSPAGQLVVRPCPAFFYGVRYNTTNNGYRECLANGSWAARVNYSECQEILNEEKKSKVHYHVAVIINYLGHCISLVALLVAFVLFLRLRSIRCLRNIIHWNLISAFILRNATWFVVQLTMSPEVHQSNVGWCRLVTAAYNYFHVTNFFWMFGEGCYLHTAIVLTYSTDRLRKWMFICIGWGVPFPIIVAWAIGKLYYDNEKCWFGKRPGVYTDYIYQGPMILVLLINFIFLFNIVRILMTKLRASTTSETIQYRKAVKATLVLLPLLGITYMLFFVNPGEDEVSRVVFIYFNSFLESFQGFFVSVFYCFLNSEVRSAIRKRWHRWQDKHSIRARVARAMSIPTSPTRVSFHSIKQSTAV

B1: SEQ ID NO 107 (peptide)
peptide: Ac-IVLSLD[dV]PIKLK([AEEA-AEEA-γGlu-C18 diacid])KILLEQEKQKKQREQAETN[Dap]QILAQV-NH2
SMILES: CC[C@H](C)[C@H](NC(C)=O)C(=O)N[C@H](C(=O)N[C@@H](CC(C)C)C(=O)N[C@@H](CO)C(=O)N[C@@H](CC(C)C)C(=O)N[C@@H](CC(=O)O)C(=O)N[C@@H](C(=O)N1CCC[C@H]1C(=O)N[C@H](C(=O)N[C@@H](CCCCN)C(=O)N[C@@H](CC(C)C)C(=O)N[C@@H](CCCCNC(=O)COCCOCCNC(=O)COCCOCCNC(=O)CC[C@H](NC(=O)CCCCCCCCCCCCCCCCC(=O)O)C(=O)O)C(=O)N[C@@H](CCCCN)C(=O)N[C@H](C(=O)N[C@@H](CC(C)C)C(=O)N[C@@H](CC(C)C)C(=O)N[C@@H](CCC(=O)O)C(=O)N[C@@H](CCC(N)=O)C(=O)N[C@@H](CCC(=O)O)C(=O)N[C@@H](CCCCN)C(=O)N[C@@H](CCC(N)=O)C(=O)N[C@@H](CCCCN)C(=O)N[C@@H](CCCCN)C(=O)N[C@@H](CCC(N)=O)C(=O)N[C@@H](CCCNC(=N)N)C(=O)N[C@@H](CCC(=O)O)C(=O)N[C@@H](CCC(N)=O)C(=O)N[C@@H](C)C(=O)N[C@@H](CCC(=O)O)C(=O)N[C@H](C(=O)N[C@@H](CC(N)=O)C(=O)N[C@@H](CN)C(=O)N[C@@H](CCC(N)=O)C(=O)N[C@H](C(=O)N[C@@H](CC(C)C)C(=O)N[C@@H](C)C(=O)N[C@@H](CCC(N)=O)C(=O)N[C@H](C(N)=O)C(C)C)[C@@H](C)CC)[C@@H](C)O)[C@@H](C)CC)[C@@H](C)CC)C(C)C)C(C)C
B2: SEQ ID NO 41 (peptide)
peptide: Ac-IVLSLD[dV]PIKLK([γGlu-γGlu-C16 diacid])KILLEQEKQKKQREQAETN[Aib]QILAQV-NH2
SMILES: CC[C@H](C)[C@H](NC(C)=O)C(=O)N[C@H](C(=O)N[C@@H](CC(C)C)C(=O)N[C@@H](CO)C(=O)N[C@@H](CC(C)C)C(=O)N[C@@H](CC(=O)O)C(=O)N[C@@H](C(=O)N1CCC[C@H]1C(=O)N[C@H](C(=O)N[C@@H](CCCCN)C(=O)N[C@@H](CC(C)C)C(=O)N[C@@H](CCCCNC(=O)CC[C@H](NC(=O)CC[C@H](NC(=O)CCCCCCCCCCCCCCC(=O)O)C(=O)O)C(=O)O)C(=O)N[C@@H](CCCCN)C(=O)N[C@H](C(=O)N[C@@H](CC(C)C)C(=O)N[C@@H](CC(C)C)C(=O)N[C@@H](CCC(=O)O)C(=O)N[C@@H](CCC(N)=O)C(=O)N[C@@H](CCC(=O)O)C(=O)N[C@@H](CCCCN)C(=O)N[C@@H](CCC(N)=O)C(=O)N[C@@H](CCCCN)C(=O)N[C@@H](CCCCN)C(=O)N[C@@H](CCC(N)=O)C(=O)N[C@@H](CCCNC(=N)N)C(=O)N[C@@H](CCC(=O)O)C(=O)N[C@@H](CCC(N)=O)C(=O)N[C@@H](C)C(=O)N[C@@H](CCC(=O)O)C(=O)N[C@H](C(=O)N[C@@H](CC(N)=O)C(=O)NC(C)(C)C(=O)N[C@@H](CCC(N)=O)C(=O)N[C@H](C(=O)N[C@@H](CC(C)C)C(=O)N[C@@H](C)C(=O)N[C@@H](CCC(N)=O)C(=O)N[C@H](C(N)=O)C(C)C)[C@@H](C)CC)[C@@H](C)O)[C@@H](C)CC)[C@@H](C)CC)C(C)C)C(C)C

Target: T1, CRF1R receptor
Assay: cell-based or functional assay

| Emax (% I) [%] | Binder |
| --- | --- |
| 0 | B1 |
| 6 | Ac-IVLSLD[dV]PIKLK([AEEA-AEEA-γGlu-C18 diacid])KILLEQEKQKKQREQAETN[αMeK]QILAQV-NH2 (not fully specified) [SEQ ID NO 106] |
| 7 | B2 |

Target: human corticotropin-releasing factor 2a (CRF2a receptor) (human), Q13324
Assay: cell-based or functional assay

Chain of human corticotropin-releasing factor 2a (CRF2a receptor) (human), Q13324 (Q13324 20-411): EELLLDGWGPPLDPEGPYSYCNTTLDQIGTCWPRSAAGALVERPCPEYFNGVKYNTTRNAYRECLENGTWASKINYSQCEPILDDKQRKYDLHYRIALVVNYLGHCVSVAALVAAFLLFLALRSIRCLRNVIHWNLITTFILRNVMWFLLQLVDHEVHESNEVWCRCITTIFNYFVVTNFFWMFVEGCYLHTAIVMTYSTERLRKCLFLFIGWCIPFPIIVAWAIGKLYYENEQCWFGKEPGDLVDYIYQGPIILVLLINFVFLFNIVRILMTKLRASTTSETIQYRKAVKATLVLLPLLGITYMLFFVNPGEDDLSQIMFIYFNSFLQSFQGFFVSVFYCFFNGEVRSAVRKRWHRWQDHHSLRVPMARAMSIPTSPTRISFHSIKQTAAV

| EC50 [nM] (cAMP) | Binder |
| --- | --- |
| 1.43 | B1 |
| 0.35 | Ac-IVLSLD[dV]PIKLK([AEEA-AEEA-γGlu-C18 diacid])KILLEQEKQKKQREQAETN[αMeK]QILAQV-NH2 (not fully specified) [SEQ ID NO 106] |
| 1.85 | B2 |
